Measured values as given in the supplement of paper PMC7125110.
± gives the standard error. Variants at the floor of the assay were thinned out.

B1: glmS ribozyme (parent)
chain: AUAAAAGCGCCAGAACUACAGAAAUGUAGUUGACGAGGAGGAGGUUUAUCGAAUUUUCGGCGGAUGCCUCCAAA

Assays:
Conditions in all cases: with glucosamine-6-phosphate
[1] = variants of: B1; assay: self-cleavage kobs at 40 uM GlcN6P; higher = faster cleavage; RNA array
Summary of the method: (§1)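 Ribozyme variants carrying barcodes were transcribed in situ on sequenced MiSeq chips by E. coli RNA polymerase and tracked at 37 °C with a hybridised Cy3 probe. They were exposed to 40 μM to 10 mM glucosamine-6-phosphate in HEPES/KCl/Mg(OAc)2 buffer. kobs came from exponential decay fits of normalised per-tile medians, and kcat and KM from weighted Michaelis–Menten fits.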

[2] = variants of: B1; assay: self-cleavage kobs at 640 uM GlcN6P; higher = faster cleavage; RNA array
Summary of the method: as §1

[3] = variants of: B1; assay: self-cleavage kobs at 10000 uM GlcN6P; higher = faster cleavage; RNA array
Summary of the method: as §1

[4] = variants of: B1; assay: self-cleavage kobs at 160 uM GlcN6P; higher = faster cleavage; RNA array
Summary of the method: as §1

[5] = variants of: B1; assay: self-cleavage kobs at 2500 uM GlcN6P; higher = faster cleavage; RNA array
Summary of the method: as §1

Variant	self-cleavage kobs at 40 uM GlcN6P [1] [s⁻¹]	self-cleavage kobs at 640 uM GlcN6P [2] [s⁻¹]	self-cleavage kobs at 10000 uM GlcN6P [3] [s⁻¹]	self-cleavage kobs at 160 uM GlcN6P [4] [s⁻¹]	self-cleavage kobs at 2500 uM GlcN6P [5] [s⁻¹]
U49C C70U	< 1e-05	< 1e-05	< 1e-05	–	–
C10G A42G	< 1e-05	< 1e-05	–	< 1e-05	–
G32A C50U	< 1e-05	< 1e-05	–	–	–
G43A C70G	< 1e-05	< 1e-05	< 1e-05	< 1e-05	< 1e-05
G7C A64G	< 1e-05	< 1e-05	–	< 1e-05	< 1e-05
G41A G60U	< 1e-05	< 1e-05	< 1e-05	–	–
G32C A36C G37C	< 1e-05	–	–	–	–
G29U U31A A42U	< 1e-05	–	–	–	–
U49G G66C	< 1e-05	–	–	–	< 1e-05
A12U C68G C70G	< 1e-05	–	–	–	–
C10U U31G G40U	< 1e-05	–	–	–	–
A12G C16U C34A A39U G60A U69G	< 1e-05	–	–	–	–
A12C U45A C58G C67G	< 1e-05	–	–	–	–
A15C C16G	5.89e-05 ± 1.4e-05	0.000438 ± 5.6e-05	0.00295 ± 0.00045	–	–
A6U C10G A42G C50G C67A C70A	0.000143 ± 4.1e-05	–	9.95e-05 ± 2.4e-05	–	–
C34G G38A C58U	< 1e-05	–	–	–	–
U54G U55G	0.00108 ± 0.00018	0.00673 ± 0.0015	–	0.00148 ± 0.00028	0.0105 ± 0.0029
C8G G29U A33C C68A	< 1e-05	< 1e-05	< 1e-05	–	–
G7C G43U	< 1e-05	< 1e-05	< 1e-05	< 1e-05	–
G9U G35A	< 1e-05	< 1e-05	< 1e-05	< 1e-05	< 1e-05
G51U G63U A64C	< 1e-05	–	–	–	< 1e-05
U55A C70U	0.00118 ± 0.00012	0.00644 ± 0.0011	–	0.00271 ± 0.00065	–
G13U G41C U46G C50G	< 1e-05	–	–	–	–
C8G G38C C50A G66U	< 1e-05	< 1e-05	–	< 1e-05	< 1e-05

Variant	self-cleavage kobs at 40 uM GlcN6P [1] [s⁻¹]	self-cleavage kobs at 640 uM GlcN6P [2] [s⁻¹]	self-cleavage kobs at 10000 uM GlcN6P [3] [s⁻¹]	self-cleavage kobs at 160 uM GlcN6P [4] [s⁻¹]	self-cleavage kobs at 2500 uM GlcN6P [5] [s⁻¹]
A33C G51A	< 1e-05	–	< 1e-05	–	< 1e-05
A14G C16U U45G C67U	0.00026 ± 6.6e-05	0.00248 ± 0.0012	–	0.000132 ± 3e-05	0.00988 ± 0.0035
A12U A52G	8.7e-05 ± 1.3e-05	0.000717 ± 0.00014	0.00785 ± 0.0012	0.000171 ± 6.4e-05	0.00267 ± 0.00049
G41A A48U C68A	< 1e-05	< 1e-05	< 1e-05	–	< 1e-05
G13U A36G	< 1e-05	< 1e-05	< 1e-05	< 1e-05	< 1e-05
C11U A14U G43U U54A G63A	< 1e-05	–	–	–	< 1e-05
G29C U65G C67U	< 1e-05	–	0.000105 ± 3e-05	–	–
G9U G13C	< 1e-05	< 1e-05	< 1e-05	< 1e-05	–
G13C G29U A48U	< 1e-05	< 1e-05	–	–	–
U30A G66C C70G	< 1e-05	–	–	–	–
G35C C58A C71A	< 1e-05	–	< 1e-05	–	–
C10U G40U A48U	< 1e-05	< 1e-05	< 1e-05	–	–
A6G A12G G66U	< 1e-05	–	–	–	–
C10G G37A	< 1e-05	< 1e-05	< 1e-05	< 1e-05	–
A42C C61A G66U	< 1e-05	–	–	–	< 1e-05
A6U G51A	< 1e-05	–	< 1e-05	–	–
A6G G13C	< 1e-05	< 1e-05	< 1e-05	< 1e-05	< 1e-05
U46G U57A	< 1e-05	–	5.59e-05 ± 7.8e-06	–	–
A14C G62C G63A C68G	< 1e-05	–	–	–	–
G7U G38A	< 1e-05	–	< 1e-05	< 1e-05	–
U47A U54G	0.0005 ± 0.00016	0.0103 ± 0.0034	–	–	0.00345 ± 0.0016
G40A C71G	0.000326 ± 5.2e-05	0.00161 ± 0.00038	0.00695 ± 0.0013	0.00034 ± 0.00014	0.00373 ± 0.0013
C8A A14G	< 1e-05	< 1e-05	–	–	–
